The target in assay [1] is CD3 on human donor Pan T cells (human). Kind of assay: cell-based or functional assay.
Assay [2] concerns the target T1, BCMA on H929-Fluc-GFP cells (UniProt Q02223 1-184).
T1 sequence (looked up): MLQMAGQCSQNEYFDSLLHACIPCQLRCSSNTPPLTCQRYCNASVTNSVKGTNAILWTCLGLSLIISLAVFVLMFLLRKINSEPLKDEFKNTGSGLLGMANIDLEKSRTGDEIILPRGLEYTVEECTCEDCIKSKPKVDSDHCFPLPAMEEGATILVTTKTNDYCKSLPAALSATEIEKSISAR
Kind of assay: cell-based or functional assay.

The next assay has as its target CD3W220.001. Kind of assay: SPR, CD3 antigen CD3W220.001.
The next assay deals with T2, BCMA (BCMW37.DB.001) (UniProt Q02223 1-54, limits assumed).
T2 construct: The SPR antigen itself is named only by its batch label
T2 sequence (looked up): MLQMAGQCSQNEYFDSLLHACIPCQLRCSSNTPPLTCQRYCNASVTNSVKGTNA
The experiment in a line: SPR, BCMA antigen BCMW37.DB.001. For orientation: Surface plasmon resonance follows binding to a sensor surface in real time, without labels.

For assay [3], the target named is T3, biotinylated-BCMA protein (UniProt Q02223 1-54, limits assumed, biotinylated (site not stated)).
T3 construct: also called recombinant BCMA antigen; recombinant biotinylated BCMA
T3 sequence (looked up): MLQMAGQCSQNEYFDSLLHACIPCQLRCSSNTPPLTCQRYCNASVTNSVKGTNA
Kind of assay: BLI (Octet), biotinylated BCMA on streptavidin sensor, bispecific in solution, 1:1 model.

For assay [4], the target named is T4, Human CD3E-CD3D Heterodimer Protein (Acro Biosystems) (human, UniProt P07766 23-126; P04234 22-105).
T4 construct: also called recombinant CD3 antigen (human CD3 epsilon and CD3 delta heterodimer protein, Acro Biosystems); Recombinant CD3E/D heterodimer protein
T4 sequence (P07766 23-126 limits assumed, chain 1 of 2): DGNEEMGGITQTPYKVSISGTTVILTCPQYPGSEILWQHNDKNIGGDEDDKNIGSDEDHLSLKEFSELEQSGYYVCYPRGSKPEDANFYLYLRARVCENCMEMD
T4 sequence (P04234 22-105 limits assumed, chain 2 of 2): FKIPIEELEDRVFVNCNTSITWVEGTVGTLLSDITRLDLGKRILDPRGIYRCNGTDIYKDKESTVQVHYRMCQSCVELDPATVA
The experiment in a line: BLI (Octet), bispecific on anti-human Fc sensor, CD3 in solution, 2:1 heterogeneous ligand model, ka. On the technique in general: In BLI a coated tip is dipped into the sample, and binding shifts an interference pattern.
Experimental: (§1) To evaluate CD3 binding, anti-human IgG Fc (AHC) capture biosensors (Sartorius) were loaded with 3 ug/mL bispecific sample of interest in PBS. After loading sensor tips were washed in 1×DPBS+0.02% Tween 20+1 mg/mL Bovine Serum Albumin (BSA) for blocking. […] Association was monitored for 1800 s and dissociation for 900 s, respectively. All measurements were performed at 30° C. with agitation at 1,200 rpm. Sensorgrams were referenced for buffer effects and then analyzed using the FORTEBIO Data Analysis HT Software (V. 12.0.1.55). Kinetic responses were baseline subtracted, aligned and globally fit using a 1:1 fitting model or 2:1 heterogeneous ligand binding model to obtain values for association (Kon), dissociation (Koff) rate constants and the equilibrium dissociation constants (KD).
(§2) Recombinant CD3E/D heterodimer protein was used to assess binding of the scFv/spFv anti-CD3 arms.

Assay [5] addresses T4, Human CD3E-CD3D Heterodimer Protein …. Kind of assay: BLI (Octet), bispecific on anti-human Fc sensor, CD3 in solution, 2:1 heterogeneous ligand model, KD1.
Experimental: as §1, §2
Assay [6] shares this target. The experiment in a line: BLI (Octet), bispecific on anti-human Fc sensor, CD3 in solution, 2:1 heterogeneous ligand model, KD2.
Experimental: as §1, §2
Assay [7] has the same target. The experiment in a line: BLI (Octet), bispecific on anti-human Fc sensor, CD3 in solution, 2:1 heterogeneous ligand model, ka2.
Experimental: as §1, §2
For assay [8] the target is unchanged. Kind of assay: BLI (Octet), bispecific on anti-human Fc sensor, CD3 in solution, 2:1 heterogeneous ligand model, kdis.
Experimental: as §1, §2
The target is the same in assay [9]. The experiment in a line: BLI (Octet), bispecific on anti-human Fc sensor, CD3 in solution, 2:1 heterogeneous ligand model, kdis2.
Experimental: as §1, §2
Assay [10] addresses T3, biotinylated-BCMA protein. Kind of assay: ELISA, chemiluminescence: biotinylated recombinant BCMA on streptavidin plates, detection with goat anti-human IgG F(ab')2 HRP. A general note: An ELISA detects its analyte on a solid surface through an enzyme-linked reagent.
Experimental: Bispecific antibodies were analyzed for binding to either recombinant biotinylated BCMA or recombinant biotinylated CD3 antigen (human CD3 epsilon and CD3 delta heterodimer protein, Acro Biosystems). ELISAs were carried out according to standard protocols and plates were washed three time with TBS containing 0.05% Tween 20 (TBS-T) between each incubation step. Ninety-six-well MAXISORP plates (Nunc) were coated with 1 ug/mL of Streptavidin, diluted in 1×dPBS for 18 hours at 4° C. All plates were coated with 20 nM of antigen of interest for 1 hour at room temperature and then blocked with 3% BSA in PBS-T (1×dPBs with 0.05% tween 20) for 1 hour at room temperature. After blocking, plates were incubated with serial dilution of purified bispecific samples in PBS-T for 1 h at RT, and were then incubated with goat anti-human IgG F(ab′2)2 HRP (Jackson ImmunoResearch) for 1 hour at room temperature. After washing, BM Chemilluminesence ELISA Substrate (POD) was added (Millipore) and plates were immediately read on an ENVISION plate reader (Perkin Elmer) using ultrasensitive illuminesence. […] PRISM, where curves were generated and analyzed with a nonlinear regression curve fit.

CD3 on human donor Pan T cells (human), sequence (chain, as listed by the source): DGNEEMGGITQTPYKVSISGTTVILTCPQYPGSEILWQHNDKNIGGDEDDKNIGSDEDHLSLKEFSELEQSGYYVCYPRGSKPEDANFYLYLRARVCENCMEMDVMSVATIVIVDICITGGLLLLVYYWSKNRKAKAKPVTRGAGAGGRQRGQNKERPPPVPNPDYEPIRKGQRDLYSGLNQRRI

B1: BCMB1056 (bispecific antibody, human IgG1, kappa, L234A L235A)
light: DIVMTQSQKFMSTTVGDRVSITCKASQNVGTAVAWYQQKPGQSPKLLIYSASNRYTGVPDRFTGTGSGTDFTLTIINVQSEDLADYFCQQYGSSPWTFGGGTKLEIKRTVAAPSVFIFPPSDEQLKSGTASVVCLLNNFYPREAKVQWKVDNALQSGNSQESVTEQDSKDSTYSLSSTLTLSKADYEKHKVYACEVTHQGLSSPVTKSFNRGEC
heavy: QVQLQQSGAELVKPGASVKLSCKASGYTFTNNVMHWVRQKPGQGLEWIGYILPYNDGTKYNEKFKGKATLTSDKSSSTAYMELSSLTSEDSAVYYCARYDYDGYFDYWGQGTTLTVSSASTKGPSVFPLAPSSKSTSGGTAALGCLVKDYFPEPVTVSWNSGALTSGVHTFPAVLQSSGLYSLSSVVTVPSSSLGTQTYICNVNHKPSNTKVDKKVEPKSCDKTHTCPPCPAPEAAGGPSVFLFPPKPKDTLMISRTPEVTCVVVSVSHEDPEVKFNWYVDGVEVHNAKTKPREEQYNSTYRVVSVLTVLHQDWLNGKEYKCKVSNKALPAPIEKTISKAKGQPREPQVYTLPPSREEMTKNQVSLSCAVKGFYPSDIAVEWESNGQPENNYKTTPPVLDSDGSFFLVSKLTVDKSRWQQGNVFSCSVMHEALHNRFTQKSLSLSPGK
chain: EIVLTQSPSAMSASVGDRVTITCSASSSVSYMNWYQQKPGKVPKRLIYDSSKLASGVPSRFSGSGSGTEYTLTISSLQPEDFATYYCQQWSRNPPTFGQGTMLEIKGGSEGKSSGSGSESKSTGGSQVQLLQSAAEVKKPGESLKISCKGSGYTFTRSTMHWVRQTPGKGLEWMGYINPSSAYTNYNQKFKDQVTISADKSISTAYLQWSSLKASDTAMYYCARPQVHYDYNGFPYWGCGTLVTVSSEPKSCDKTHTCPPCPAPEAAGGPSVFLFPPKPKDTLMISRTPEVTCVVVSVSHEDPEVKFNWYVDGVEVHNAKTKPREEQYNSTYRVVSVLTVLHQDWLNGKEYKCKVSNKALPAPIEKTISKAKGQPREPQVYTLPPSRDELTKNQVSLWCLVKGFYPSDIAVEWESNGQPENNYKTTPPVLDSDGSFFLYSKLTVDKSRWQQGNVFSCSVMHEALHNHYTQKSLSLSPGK
notes: Murine anti-BCMA Fab × anti-CD3 scFv-Fc, knob-in-hole Fc; also called BCMB1056.001; BCMB749 × Cris7b scFv
B1: in assay [1], the “Bottom of fit, CD4/CD25+ T cell activation” value turned out to be 8.29; the “Bottom of fit, CD8/CD25+ T cell activation” value amounted to 1.42; the “EC50 (nM), CD4/CD25+ T cell activation” value came to 0.105 nM; the “EC50 (nM), CD8/CD25+ T cell activation” value amounted to 0.15 nM. In assay [1], the “Top of fit (Cmax), CD4/CD25+ T cell activation” value worked out at 82.7 and the “Top of fit (Cmax), CD8/CD25+ T cell activation” value was 75.3. Moreover, in assay [2], the “Bottom of fit, % Cytolysis” value stood at 17.2%; the “EC50 (nM), % Cytolysis” value turned out to be 0.0758 nM; the “Top of fit (Cmax), % Cytolysis” value is 92.7%. In addition, in the assay with CD3W220.001, binding was characterised by a dissociation constant (Kd) of 951 nM; the koff (commonly the rate constant with which the complex falls apart) was 0.237 s⁻¹; the kon (in general, the rate constant with which the complex forms) was determined as 249000 M⁻¹ s⁻¹. Moreover, in the assay with BCMA (BCMW37.DB.001), binding was characterised by a dissociation constant (Kd) of 2.61 nM, the koff turned out to be 0.0389 s⁻¹ and the kon amounted to 1.49e+07 M⁻¹ s⁻¹.

B2: TD01B49 (bispecific antibody, human IgG1, kappa, L234A L235A)
light: DIVMTQSQKFMSTTVGDRVSITCKASQNVGTAVAWYQQKPGQSPKLLIYSASNRYTGVPDRFTGTGSGTDFTLTIINVQSEDLADYFCQQYGSSPWTFGGGTKLEIKRTVAAPSVFIFPPSDEQLKSGTASVVCLLNNFYPREAKVQWKVDNALQSGNSQESVTEQDSKDSTYSLSSTLTLSKADYEKHKVYACEVTHQGLSSPVTKSFNRGEC
heavy: QVQLQQSGAELVKPGASVKLSCKASGYTFTNNVMHWVRQKPGQGLEWIGYILPYNDGTKYNEKFKGKATLTSDKSSSTAYMELSSLTSEDSAVYYCARYDYDGYFDYWGQGTTLTVSSASTKGPSVFPLAPSSKSTSGGTAALGCLVKDYFPEPVTVSWNSGALTSGVHTFPAVLQSSGLYSLSSVVTVPSSSLGTQTYICNVNHKPSNTKVDKKVEPKSCDKTHTCPPCPAPEAAGGPSVFLFPPKPKDTLMISRTPEVTCVVVSVSHEDPEVKFNWYVDGVEVHNAKTKPREEQYNSTYRVVSVLTVLHQDWLNGKEYKCKVSNKALPAPIEKTISKAKGQPREPQVYTLPPSREEMTKNQVSLSCAVKGFYPSDIAVEWESNGQPENNYKTTPPVLDSDGSFFLVSKLTVDKSRWQQGNVFSCSVMHEALHNRFTQKSLSLSPGK
chain: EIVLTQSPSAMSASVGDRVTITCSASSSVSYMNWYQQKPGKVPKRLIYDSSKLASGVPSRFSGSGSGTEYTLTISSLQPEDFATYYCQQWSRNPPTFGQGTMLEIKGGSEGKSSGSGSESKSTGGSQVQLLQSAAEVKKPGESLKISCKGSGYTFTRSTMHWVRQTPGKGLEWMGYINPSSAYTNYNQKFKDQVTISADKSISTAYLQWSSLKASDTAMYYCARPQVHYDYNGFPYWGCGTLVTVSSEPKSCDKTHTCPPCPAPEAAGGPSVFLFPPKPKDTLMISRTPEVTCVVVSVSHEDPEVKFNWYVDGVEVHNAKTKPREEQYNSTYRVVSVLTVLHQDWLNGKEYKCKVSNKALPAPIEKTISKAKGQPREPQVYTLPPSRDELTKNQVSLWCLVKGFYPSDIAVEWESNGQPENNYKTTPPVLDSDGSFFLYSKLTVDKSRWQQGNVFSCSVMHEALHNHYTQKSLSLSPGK
notes: also called BCMB749 × Cris7b scFv Bird
For the molecule B2, the Kd (in general, the concentration at which binding is half-saturated) is 4.02 nM in assay [3], 0.127 nM in assay [5] and 3.42 nM in assay [6]. In addition, the koff came out at 0.00145 s⁻¹ in assay [3], 2.04e-05 s⁻¹ in [8] and 5.61e-05 s⁻¹ in [9]. Also, the kon in assay [3] came out at 362000 M⁻¹ s⁻¹; in assay [4], 160000 M⁻¹ s⁻¹; in assay [7] it was 16400 M⁻¹ s⁻¹. In addition, in [10], the EC50 (read off the curve) – broadly, the midpoint of the concentration-response curve – was about 2 nM.

B3: TD01B46 (bispecific antibody, human IgG1, kappa, L234A L235A)
light: DIVMTQSQKFMSTTVGDRVSITCKASQNVGTAVAWYQQKPGQSPKLLIYSASNRYTGVPDRFTGTGSGTDFTLTIINVQSEDLADYFCQQYGSSPWTFGGGTKLEIKRTVAAPSVFIFPPSDEQLKSGTASVVCLLNNFYPREAKVQWKVDNALQSGNSQESVTEQDSKDSTYSLSSTLTLSKADYEKHKVYACEVTHQGLSSPVTKSFNRGEC
heavy: QVQLQQSGAELVKPGASVKLSCKASGYTFTNNVMHWVRQKPGQGLEWIGYILPYNDGTKYNEKFKGKATLTSDKSSSTAYMELSSLTSEDSAVYYCARYDYDGYFDYWGQGTTLTVSSASTKGPSVFPLAPSSKSTSGGTAALGCLVKDYFPEPVTVSWNSGALTSGVHTFPAVLQSSGLYSLSSVVTVPSSSLGTQTYICNVNHKPSNTKVDKKVEPKSCDKTHTCPPCPAPEAAGGPSVFLFPPKPKDTLMISRTPEVTCVVVSVSHEDPEVKFNWYVDGVEVHNAKTKPREEQYNSTYRVVSVLTVLHQDWLNGKEYKCKVSNKALPAPIEKTISKAKGQPREPQVYTLPPSREEMTKNQVSLSCAVKGFYPSDIAVEWESNGQPENNYKTTPPVLDSDGSFFLVSKLTVDKSRWQQGNVFSCSVMHEALHNRFTQKSLSLSPGK
chain: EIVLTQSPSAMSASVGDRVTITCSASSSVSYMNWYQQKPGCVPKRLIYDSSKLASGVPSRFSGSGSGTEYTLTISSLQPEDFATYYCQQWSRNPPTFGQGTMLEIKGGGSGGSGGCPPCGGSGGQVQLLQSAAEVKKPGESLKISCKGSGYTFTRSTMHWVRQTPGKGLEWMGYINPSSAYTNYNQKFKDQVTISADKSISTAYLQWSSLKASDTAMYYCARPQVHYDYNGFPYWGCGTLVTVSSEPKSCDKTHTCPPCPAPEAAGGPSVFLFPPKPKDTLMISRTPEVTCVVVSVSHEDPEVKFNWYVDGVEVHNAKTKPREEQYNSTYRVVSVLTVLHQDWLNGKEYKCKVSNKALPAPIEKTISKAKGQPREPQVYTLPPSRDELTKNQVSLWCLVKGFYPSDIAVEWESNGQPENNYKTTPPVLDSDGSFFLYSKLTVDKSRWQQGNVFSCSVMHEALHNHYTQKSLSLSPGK
notes: Stapled bispecific from the large-scale batch; also called BCMB749 × Cris7b spFv
Turning to B3, the results for the Kd in [3], in [5] and in [6] were 5.43 nM, 0.0222 nM and 2.99 nM, respectively. The koff is 0.00142 s⁻¹ in assay [3], 3.49e-06 s⁻¹ in assay [8] and 4.65e-05 s⁻¹ in assay [9]. Also, the figures for the kon in [3], in [4] and in assay [7] were 261000 M⁻¹ s⁻¹, 158000 M⁻¹ s⁻¹ and 15600 M⁻¹ s⁻¹, respectively. For the same molecule, in assay [10], the “EC50 (read off the curve)” value is about 2 nM.

B4: TD01B48 (bispecific antibody)
light: DIVMTQSQKFMSTTVGDRVSITCKASQNVGTAVAWYQQKPGQSPKLLIYSASNRYTGVPDRFTGTGSGTDFTLTIINVQSEDLADYFCQQYGSSPWTFGGGTKLEIKRTVAAPSVFIFPPSDEQLKSGTASVVCLLNNFYPREAKVQWKVDNALQSGNSQESVTEQDSKDSTYSLSSTLTLSKADYEKHKVYACEVTHQGLSSPVTKSFNRGEC
heavy: QVQLQQSGAELVKPGASVKLSCKASGYTFTNNVMHWVRQKPGQGLEWIGYILPYNDGTKYNEKFKGKATLTSDKSSSTAYMELSSLTSEDSAVYYCARYDYDGYFDYWGQGTTLTVSSASTKGPSVFPLAPSSKSTSGGTAALGCLVKDYFPEPVTVSWNSGALTSGVHTFPAVLQSSGLYSLSSVVTVPSSSLGTQTYICNVNHKPSNTKVDKKVEPKSCDKTHTCPPCPAPEAAGGPSVFLFPPKPKDTLMISRTPEVTCVVVSVSHEDPEVKFNWYVDGVEVHNAKTKPREEQYNSTYRVVSVLTVLHQDWLNGKEYKCKVSNKALPAPIEKTISKAKGQPREPQVYTLPPSREEMTKNQVSLSCAVKGFYPSDIAVEWESNGQPENNYKTTPPVLDSDGSFFLVSKLTVDKSRWQQGNVFSCSVMHEALHNRFTQKSLSLSPGK
scFv-Fc: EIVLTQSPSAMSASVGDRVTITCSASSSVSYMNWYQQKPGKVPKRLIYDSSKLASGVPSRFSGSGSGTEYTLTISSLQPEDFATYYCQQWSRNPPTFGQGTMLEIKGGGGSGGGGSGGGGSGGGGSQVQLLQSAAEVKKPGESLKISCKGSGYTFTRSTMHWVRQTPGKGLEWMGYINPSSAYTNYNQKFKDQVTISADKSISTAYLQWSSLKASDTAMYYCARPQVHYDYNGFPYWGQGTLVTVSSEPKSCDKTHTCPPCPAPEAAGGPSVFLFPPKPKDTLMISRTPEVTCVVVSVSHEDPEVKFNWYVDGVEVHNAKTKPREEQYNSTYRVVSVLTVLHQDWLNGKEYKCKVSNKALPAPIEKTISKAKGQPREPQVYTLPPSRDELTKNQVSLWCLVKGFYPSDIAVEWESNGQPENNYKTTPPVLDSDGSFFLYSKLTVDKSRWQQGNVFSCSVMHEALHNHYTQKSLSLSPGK
notes: also called BCMB749 × Cris7b scFv G4S; Cris7 scFv B48 G4S
Turning to B4, the kon in assay [4] was 147000 M⁻¹ s⁻¹; in assay [7], 16100 M⁻¹ s⁻¹. Besides, the values for the Kd in assay [5] and in assay [6] were 0.238 nM and 4.62 nM, respectively. The koff amounted to 3.49e-05 s⁻¹ in assay [8] and 7.45e-05 s⁻¹ in [9]. Also, the “EC50 (read off the curve)” value in [10] is about 2 nM.

The values above are taken from patent US20250320304A1 (Janssen / Centocor, published 2025).
